Measured values reported in publication PMC9263151, “Structural and biochemical analyses of the flagellar expression regulator DegU from Listeria monocytogenes”.

Key:
[1] = target: DNA-binding domain of Listeria monocytogenes DegU (lmDegUDBD) (Listeria monocytogenes ATCC 15313) (UniProt Q6DL91); assay: crystal structure; lmDegUDBD alone, two chains (A and B) in the asymmetric unit; crystals from 22% PEG 3350, 0.1 M Tris pH 8.0, 18 °C; 2.39 Å
[2] = target: DNA-binding domain of Listeria monocytogenes DegU (lmDegUDBD) (Listeria monocytogenes ATCC 15313) (UniProt Q6DL91); assay: cross-linking; 5 μg protein in 20 mM Hepes pH 7.4, 300 mM sodium chloride, 5 mM β-mercaptoethanol with EDC and sulfo-NHS, 5 min at room temperature; SDS-PAGE, Coomassie staining
lmDegUDBD = target: T1, lmDegUDBD (Listeria monocytogenes ATCC 15313, UniProt Q6DL91 159-228); assay: fluorescence polarization; conditions: protein: recombinant; tags: N-terminal His6 removed by thrombin; chain copies: 2; blunt
T1 sequence: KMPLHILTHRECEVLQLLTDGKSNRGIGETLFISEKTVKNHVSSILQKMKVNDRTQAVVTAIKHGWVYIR

lmDegUFL = lmDegUFL (Listeria monocytogenes ATCC 15313, UniProt Q6DL91 1-228); assay: fluorescence polarization; unphosphorylated; conditions: protein: recombinant; tags: C-terminal His6; chain copies: 2; blunt
lmDegUFL D55N = lmDegUFL D55N (Listeria monocytogenes ATCC 15313, UniProt Q6DL91 1-228, D55N); assay: fluorescence polarization; comparable to lmDegUFL; conditions: protein: recombinant; tags: C-terminal His6; chain copies: 2; blunt
lmDegUFL D55E = lmDegUFL D55E (Listeria monocytogenes ATCC 15313, UniProt Q6DL91 1-228, D55E); assay: fluorescence polarization; affinity not significantly changed vs lmDegUFL; conditions: protein: recombinant; tags: C-terminal His6; chain copies: 2; blunt
lmDegURD = lmDegURD (Listeria monocytogenes ATCC 15313, UniProt Q6DL91 1-143); assay: EMSA; no shift; conditions: protein: recombinant; tags: N-terminal His6 removed by TEV; chain copies: 2; blunt

## DNA-binding domain of Listeria monocytogenes DegU (lmDegUDBD) (from UniProt Q6DL91 159-228) (domain or fragment)
[1]
  stoichiometry N: 2
[2]
  stoichiometry N: 2

B1: fliN-gmaR operator 36-bp dsDNA, fluorescein (dsDNA)
DNA 1: CGAGTAGGTCAAAAGGATTGGGTATGAAGAACCTTT
DNA 2: AAAGGTTCTTCATACCCAATCCTTTTGACCTACTCG
lmDegUDBD
  Kd: 6.7 ± 2.3 µM
lmDegUFL
  Kd: 0.173 ± 0.026 µM
lmDegUFL D55N
  binding result: binds
lmDegUFL D55E
  binding result: binds

B2: fliN-gmaR operator 36-bp dsDNA, unlabeled (dsDNA)
DNA 1: CGAGTAGGTCAAAAGGATTGGGTATGAAGAACCTTT
DNA 2: AAAGGTTCTTCATACCCAATCCTTTTGACCTACTCG
lmDegURD
  binding result: no binding
